Earlier results as cited in patent publication US20240409647A1, “BISPECIFIC BINDING PROTEINS AGAINST ALARMINS AND USES THEREOF” (SINOMAB BIOSCIENCE LIMITED, priority 2022, published 2024).

Conditions: patients who discontinued ICS and LABA, 12 weeks; placebo 41%

B1: itepekimab: anti-IL-33 antibody (antibody, chains of the INN, looked up, V domains shown)
VH: EVQLVESGGNLEQPGGSLRLSCTASGFTFSRSAMNWVRRAPGKGLEWVSGISGSGGRTYYADSVKGRFTISRDNSKNTLYLQMNSLSAEDTAAYYCAKDSYTTSWYGGMDVWGHGTTVTVSS
VL: DIQMTQSPSSVSASVGDRVTITCRASQGIFSWLAWYQQKPGKAPKLLIYAASSLQSGVPSRFSGSGSGTDFTLTISSLQPEDFAIYYCQQANSVPITFGQGTRLEIK
rate of loss of asthma control: 22%
